In patent US20080213817A1, “Enhancement of Th2-Dependent and Inflammatory Response” (priority 2004, published 2008):

System: WT thymocytes
Test: Thymocyte proliferation, [3H] thymidine incorporation
Type: cell-based, mice
Conditions: anti-CD3 or anti-CD3+anti-CD28, 72 hrs, increasing amounts of IL-4
Experimental: For proliferation assays, purified thymocytes or CD4^+ or CD8^+ splenic T cells (2×10^5 cells/well) were cultured in round bottom 96-well plates (Costar) precoated with anti-CD3 antibody (BD Pharmingen) in the absence or presence of soluble anti-CD28 antibody (BD Pharmingen). After 3 days, cultures were pulsed for 6 hrs with 1 μCi [^3H] thymidine (New England Nuclear) per well and cells were harvested. [^3H] thymidine incorporation was measured by scintillation counting. When indicated, either recombinant IL-4 or neutralizing anti-IL-4 antibody (R&D Systems) were added prior to [^3H] thymidine labeling.
For proliferation assays, purified thymocytes (2×10^5 cells/well) were cultured in round bottom 96-well plates (Costar) precoated with anti-CD3 antibody (BD Pharmingen) in the absence or presence of soluble anti-CD28 antibody (BD Pharmingen). […] [^3H] thymidine incorporation was measured by scintillation counting. […]
The effect of the Mekk1^KD mutation on activation of JNK and other MAPKs in response to TCR and CD28 engagement was investigated. • A. WT and Mekk1^KD thymocytes were incubated with anti-CD3 (10 μg/ml) and anti-CD28 (1 μg/ml). At the indicated times, JNK activity was measured by an immunecomplex kinase assay using GST-c-Jun(1-79) as the substrate. Phosphorylated c-Jun was detected by autoradiography and quantitated using a PhosphorImager. […] Cell proliferation was measured as above. […]

B1: IL-4: recombinant IL-4 (R&D Systems), added exogenously (protein, UniProt P05112 25-153, looked up)
Interleukin-4: HKCDITLQEIIKTLNSLTEQKTLCTELTVTDIFAASKNTTEKETFCRAATVLRQFYSHHEKDTRCLGATAQQFHRHKQLIRFLKRLDRNLWGLAGLNSCPVKEANQSTLENFLERLKTIMREKYSKCSS
proliferative response of WT thymocytes on addition of exogenous IL-4: strongly potentiated
